From doi:10.1101/632075, “Determinants of FtsZ C-terminal linker-dependent regulation of cell wall metabolism in Caulobacter crescentus” (bioRxiv, 2019)

Biological target: the molecule itself
Test: negative-stain transmission electron microscopy of polymers; 4 µM protein with 2 mM GTP for 16 minutes in 50 mM HEPES-KOH pH 7.2, 300 mM KCl, 10 mM MgCl2, 0.1 mM EDTA; spotted on carbon coated grids, uranyl formate stain

Row | Protein | binding result
1 | Caulobacter crescentus FtsZ (natural protein, C. crescentus, UniProt B8H080 1-508, looked up, FtsZ of Caulobacter crescentus, wild type; regions: GTPase domain, C-terminal linker (CTL), C-terminal conserved peptide (CTC); No tag is named; also called CcFtsZ; WT FtsZ; source: E. coli Rosetta(DE3)pLysS, pET21 vector, purified (anion exchange, ammonium sulfate precipitation, SEC)) MAISLSAPRTTELKPRIVVFGVGGAGGNAVNNMIEAGLEGVEFVVANTDAQQLQFAKTDRRIQLGVQITQGLGAGAHPEVGMSAAEESFPEIGEHLDGAHMVFITAGMGGGTGTGAAPIIAKCARERGILTVGVVTKPFHFEGRHRMRLADSGIQELQRYVDTLIVIPNQNLFRVANERTTFAEAFGMADQVLHSGVRSITDLMVLPGLINLDFADVRTVMTEMGKAMMGTGEGTGEDRALMAAQNAIANPLLDEVSLKGAKAVLVNVTGGMDMTLLEVDEAANAISDQVDPEANIIFGAAFDPSLEGVIRVSVVATGMDGASIAQIEPKPVSRNISAAPLIAETSRPAPQPEPARPTARYEAARPAERPVAFAPEPAPEPEIVMSAPQPEPEAELYYDEPTVAEEPRVSAAPARSVNRIVDPLVDDVAEEPLFPENNYYEERRPQKQGGFFSMFGGGRQRYEQQASAPQAQARSAQSARPQLQPIETPQADDAEDLEIPSFLRRLAN | binds
2 | Escherichia coli FtsZ (natural protein, E. coli, UniProt P0A9A6 1-383, looked up, FtsZ of Escherichia coli, wild type; No tag is named; also called EcFtsZ; source: E. coli Rosetta(DE3)pLysS, pET21 vector, purified (anion exchange, ammonium sulfate precipitation, SEC)) MFEPMELTNDAVIKVIGVGGGGGNAVEHMVRERIEGVEFFAVNTDAQALRKTAVGQTIQIGSGITKGLGAGANPEVGRNAADEDRDALRAALEGADMVFIAAGMGGGTGTGAAPVVAEVAKDLGILTVAVVTKPFNFEGKKRMAFAEQGITELSKHVDSLITIPNDKLLKVLGRGISLLDAFGAANDVLKGAVQGIAELITRPGLMNVDFADVRTVMSEMGYAMMGSGVASGEDRAEEAAEMAISSPLLEDIDLSGARGVLVNITAGFDLRLDEFETVGNTIRAFASDNATVVIGTSLDPDMNDELRVTVVATGIGMDKRPEITLVTNKQVQQPVMDRYQQHGMAPLTQEQKPVAKVVNDNAPQTAKEPDYLDIPAFLRKQAD | binds
